Laboratory results from US20100272723A1 (Xencor, published 2010).
Positions count from the first letter of the chain named. Names and notes keep the numbering of the source.

T1: human CD19 (human, UniProt P15391 20-556)
T1 construct: also called B-cell surface antigen B4; B-cell antigen CD19
T1 sequence: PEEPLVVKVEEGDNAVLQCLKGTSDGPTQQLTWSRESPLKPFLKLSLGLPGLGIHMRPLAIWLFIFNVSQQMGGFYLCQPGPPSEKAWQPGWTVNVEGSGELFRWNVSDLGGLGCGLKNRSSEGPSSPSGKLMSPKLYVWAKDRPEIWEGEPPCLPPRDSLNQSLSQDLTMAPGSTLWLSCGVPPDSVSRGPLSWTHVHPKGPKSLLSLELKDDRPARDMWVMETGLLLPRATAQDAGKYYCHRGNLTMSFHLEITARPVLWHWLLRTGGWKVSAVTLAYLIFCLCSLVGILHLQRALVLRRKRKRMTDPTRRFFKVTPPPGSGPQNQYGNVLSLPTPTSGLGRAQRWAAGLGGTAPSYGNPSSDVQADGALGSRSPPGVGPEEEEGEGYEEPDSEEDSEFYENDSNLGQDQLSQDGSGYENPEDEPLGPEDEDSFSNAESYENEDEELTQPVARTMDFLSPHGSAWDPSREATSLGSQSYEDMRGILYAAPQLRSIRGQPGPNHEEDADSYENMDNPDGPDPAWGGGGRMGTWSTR

B1: H1.52 / L1 (antibody, V domains shown)
VH: EVQLVESGGGLVKPGGSLKLSCAASGYTFTSYVMHWVRQAPGKGLEWIGYINPYNDGTKYNEKFQGRVTISSDKSISTAYMELSSLRSEDTAMYYCARGTYYYGTRVFDYWGQGTLVTVSS
VL: DIVMTQSPATLSLSPGERATLSCRSSKSLLNSNGNTYLYWFQQKPGQSPQLLIYRMSNLASGVPDRFSGSGSGTEFTLTISSLEPEDFAVYYCMQHLEYPFTFGAGTKLEIK
notes: vs H1L1 (Kabat): VH S100cT; also called 4G7 H1.52_L1
B2: H1.199 / L1.152 (antibody, V domains shown)
VH: B1 VH with T58P, K59E
VL: B1 VL with L30Q, S32V, F101N
notes: vs H1L1 (Kabat): VH T57P/K58E/S100cT; VL L27cQ/S27eV/F96N; also called 4G7 H1.199_L1.152
B3: H1.196 / L1.146 (antibody, V domains shown)
VH: B1 VH with T58P, R106S
VL: B1 VL with S32V, A60N, F101N
notes: vs H1L1 (Kabat): VH T57P/S100cT/R100dS; VL S27eV/A55N/F96N; also called 4G7 H1.196_L1.146
B4: H1.52 / L1.138 (antibody, V domains shown)
VH: B1 VH
VL: B1 VL with S32V, A60N
notes: vs H1L1 (Kabat): VH S100cT; VL S27eV/A55N; also called 4G7 H1.52_L1.138
B5: H1.192 / L1.148 (antibody, V domains shown)
VH: B1 VH with T58P
VL: B1 VL with L30Q, A60N, F101N
notes: vs H1L1 (Kabat): VH T57P/S100cT; VL L27cQ/A55N/F96N; also called 4G7 H1.192_L1.148
B6: H1.52 / L1.160 (antibody, V domains shown)
VH: B1 VH
VL: B1 VL with L30Q, S32V, G34A, A60N, F101I
notes: vs H1L1 (Kabat): VH S100cT; VL L27cQ/S27eV/G29A/A55N/F96I; also called 4G7 H1.52_L1.160
B7: H1.65 / L1 (antibody, V domains shown)
VH: B1 VH with T105S, R106S
VL: B1 VL
notes: vs H1L1 (Kabat): VH R100dS; also called 4G7 H1.65_L1
B8: H1.191 / L1.155 (antibody, V domains shown)
VH: B1 VH with K59E
VL: B1 VL with L30Q, S32V, A60N, F101I
notes: vs H1L1 (Kabat): VH K58E/S100cT; VL L27cQ/S27eV/A55N/F96I; also called 4G7 H1.191_L1.155
B9: H1.199 / L1.139 (antibody, V domains shown)
VH: B1 VH with T58P, K59E
VL: B1 VL with S32V, F101N
notes: vs H1L1 (Kabat): VH T57P/K58E/S100cT; VL S27eV/F96N; also called 4G7 H1.199_L1.139
B10: H1.52 / L1.139 (antibody, V domains shown)
VH: B1 VH
VL: B1 VL with S32V, F101N
notes: vs H1L1 (Kabat): VH S100cT; VL S27eV/F96N; also called 4G7 H1.52_L1.139
B11: H1.202 / L1.161 (antibody, V domains shown)
VH: B1 VH with D56E
VL: B1 VL with L30Q, S32V, G34S, A60N, F101I
notes: vs H1L1 (Kabat): VH D55E/S100cT; VL L27cQ/S27eV/G29S/A55N/F96I; also called 4G7 H1.202_L1.161
B12: H1.196 / L1.152 (antibody, V domains shown)
VH: B1 VH with T58P, R106S
VL: B1 VL with L30Q, S32V, F101N
notes: vs H1L1 (Kabat): VH T57P/S100cT/R100dS; VL L27cQ/S27eV/F96N; also called 4G7 H1.196_L1.152
B13: H1.147 / L1 (antibody, V domains shown)
VH: B1 VH with T105S, D109S
VL: B1 VL
notes: vs H1L1 (Kabat): VH D101S; also called 4G7 H1.147_L1
B14: H1.52 / L1.143 (antibody, V domains shown)
VH: B1 VH
VL: B1 VL with L30Q, A60N
notes: vs H1L1 (Kabat): VH S100cT; VL L27cQ/A55N; also called 4G7 H1.52_L1.143
B15: H1 / L1.11 (antibody, V domains shown)
VH: B1 VH with T105S
VL: B1 VL with E98N
notes: vs H1L1 (Kabat): VL E93N; also called 4G7 H1_L1.11
B16: H1.144 / L1 (antibody, V domains shown)
VH: B1 VH with T105S, D109N
VL: B1 VL
notes: vs H1L1 (Kabat): VH D101N; also called 4G7 H1.144_L1
B17: H1.201 / L1.161 (antibody, V domains shown)
VH: B1 VH with D56S
VL: B1 VL with L30Q, S32V, G34S, A60N, F101I
notes: vs H1L1 (Kabat): VH D55S/S100cT; VL L27cQ/S27eV/G29S/A55N/F96I; also called 4G7 H1.201_L1.161
B18: H1.192 / L1.141 (antibody, V domains shown)
VH: B1 VH with T58P
VL: B1 VL with A60N, F101N
notes: vs H1L1 (Kabat): VH T57P/S100cT; VL A55N/F96N; also called 4G7 H1.192_L1.141
B19: H1.52 / L1.149 (antibody, V domains shown)
VH: B1 VH
VL: B1 VL with L30Q, A60N, F101I
notes: vs H1L1 (Kabat): VH S100cT; VL L27cQ/A55N/F96I; also called 4G7 H1.52_L1.149
B20: H1.109 / L1 (antibody, V domains shown)
VH: B1 VH with T58P, T105S
VL: B1 VL
notes: vs H1L1 (Kabat): VH T57P; also called 4G7 H1.109_L1
B21: H1.60 / L1 (antibody, V domains shown)
VH: B1 VH with T105L
VL: B1 VL
notes: vs H1L1 (Kabat): VH S100cL; also called 4G7 H1.60_L1

target: T1, human CD19; experiment: binding affinity relative to the parent H1L1 mAb (Example 5); assay and format not named on the sheet

| Fold change binding [fold] | Binder |
| --- | --- |
| 3.22 | B1 |
| 3.55 | B2 |
| 3.57 | B3 |
| 3.93 | B4 |
| 4.63 | B5 |
| 4.18 | B6 |
| 1.41 | B7 |
| 4.56 | B8 |
| 2.36 | B9 |
| 1.8 | B10 |
| 4.3 | B11 |
| 4.36 | B12 |
| 2.65 | B13 |
| 3.83 | B14 |
| 1.59 | B15 |
| 2.26 | B16 |
| 3.89 | B17 |
| 2.57 | B18 |
| 8.6 | B19 |
| 1.52 | B20 |
| 1.56 | B21 |
